Target: wild-type desmin, human (human) (UniProt P17661)
Assay: co-sedimentation

wild-type desmin, human (from UniProt P17661 1-470) (natural protein)
percent of desmin pelleted at 22 °C: 83.8% | percent of desmin pelleted at 37 °C: 93.3% | percent of desmin pelleted at 44 °C: 94.3%

From paper PMC5465037
